# Values of other authors as cited in patent publication US20230173142A1, “BALLISTIC DELIVERY TO MULTILAYERED TISSUES AND RELATED PARTICLES, COMPOSITIONS, METHODS AND SYSTEMS” (CALIFORNIA INSTITUTE OF TECHNOLOGY, priority 2021, published 2023).
# B1: G-CSF: granulocyte colony-stimulating factor (protein, UniProt P09919 31-207, looked up)
# Granulocyte …: TPLGPASSLPQSFLLKCLEQVRKIQGDGAALQEKLVSECATYKLCHPEELVLLGHSLGIPWAPLSSCPSQALQLAGCLSQLHSGLFLYQGLLQALEGISPELGPTLDTLQLDVADFATTIWQQMEELGMAPALQPTQGAMPAFASAFQRRAGGVLVASHLQSFLEVSYRVLRHLAQP
# Test system: wound healing
# Conditions: Material: Nanofiber
molecule,measurement,value
B1,Effect,"Improved wound closure, scar reduction, fibroblast maturation, as well"
